In patent publication US20230190867A1, “METHODS OF TREATING NASH AND COMPOSITIONS THEREFORE” (BIOINCEPT, LLC, priority 2018, published 2023):

What was measured:
[1] = molecular target: Enoyl-CoA hydratase domain-containing protein 2, mitochondrial (Homo sapiens) (UniProt Q86YB7); assay: PIF-agarose affinity extraction of normal human liver lysate 3, LC-MS/MS
[2] = molecular target: Parathymosin (Homo sapiens) (UniProt P20962); assay: as above
Vimentin (Homo sapiens) = Vimentin (Homo sapiens) (UniProt P08670); assay: as above
[3] = molecular target: Alcohol dehydrogenase 1B (Homo sapiens) (UniProt P00325); assay: as above
Alcohol dehydrogenase 1B (Homo sapiens), sequence (P00325 2-375 limits assumed): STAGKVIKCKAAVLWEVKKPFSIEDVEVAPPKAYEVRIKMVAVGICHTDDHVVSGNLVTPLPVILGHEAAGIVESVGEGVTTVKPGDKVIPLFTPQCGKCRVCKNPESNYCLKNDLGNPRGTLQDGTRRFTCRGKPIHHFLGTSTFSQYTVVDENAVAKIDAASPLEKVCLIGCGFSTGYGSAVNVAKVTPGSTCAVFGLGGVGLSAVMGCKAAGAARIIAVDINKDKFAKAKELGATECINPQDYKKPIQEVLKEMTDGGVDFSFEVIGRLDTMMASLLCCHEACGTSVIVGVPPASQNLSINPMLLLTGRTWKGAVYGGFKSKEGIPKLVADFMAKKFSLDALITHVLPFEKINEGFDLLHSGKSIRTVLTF

[4] = molecular target: Protein disulfide-isomerase A3 (Homo sapiens) (UniProt P30101); assay: as above
Protein disulfide-isomerase A3 (Homo sapiens), sequence (P30101 25-505 limits assumed): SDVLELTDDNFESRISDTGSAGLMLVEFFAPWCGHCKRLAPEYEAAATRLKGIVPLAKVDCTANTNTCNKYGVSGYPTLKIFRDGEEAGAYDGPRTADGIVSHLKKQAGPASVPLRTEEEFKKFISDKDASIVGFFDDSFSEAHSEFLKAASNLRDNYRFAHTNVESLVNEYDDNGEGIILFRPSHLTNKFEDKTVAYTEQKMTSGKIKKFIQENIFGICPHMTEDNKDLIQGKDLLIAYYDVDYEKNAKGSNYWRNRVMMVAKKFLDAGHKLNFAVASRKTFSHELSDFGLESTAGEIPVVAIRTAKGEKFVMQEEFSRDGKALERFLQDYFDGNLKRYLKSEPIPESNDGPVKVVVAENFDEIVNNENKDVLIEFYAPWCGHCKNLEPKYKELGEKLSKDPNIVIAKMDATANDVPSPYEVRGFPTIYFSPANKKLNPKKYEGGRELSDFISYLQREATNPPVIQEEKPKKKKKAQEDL

[5] = molecular target: Hepatoma-derived growth factor (Homo sapiens) (UniProt P51858); assay: as above
Hepatoma-derived growth factor (Homo sapiens), sequence (P51858 whole entry): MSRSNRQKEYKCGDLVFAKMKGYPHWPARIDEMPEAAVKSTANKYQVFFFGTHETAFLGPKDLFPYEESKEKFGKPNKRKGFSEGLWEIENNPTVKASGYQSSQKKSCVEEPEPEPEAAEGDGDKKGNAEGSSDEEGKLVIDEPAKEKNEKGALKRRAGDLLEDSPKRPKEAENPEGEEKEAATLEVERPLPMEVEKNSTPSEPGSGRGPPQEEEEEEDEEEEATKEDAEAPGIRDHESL

[6] = molecular target: Protein disulfide-isomerase (Homo sapiens) (UniProt P07237); assay: as above
[7] = molecular target: Alcohol dehydrogenase 1A (Homo sapiens) (UniProt P07327); assay: as above
Alcohol dehydrogenase 1A (Homo sapiens), sequence (P07327 2-375 limits assumed): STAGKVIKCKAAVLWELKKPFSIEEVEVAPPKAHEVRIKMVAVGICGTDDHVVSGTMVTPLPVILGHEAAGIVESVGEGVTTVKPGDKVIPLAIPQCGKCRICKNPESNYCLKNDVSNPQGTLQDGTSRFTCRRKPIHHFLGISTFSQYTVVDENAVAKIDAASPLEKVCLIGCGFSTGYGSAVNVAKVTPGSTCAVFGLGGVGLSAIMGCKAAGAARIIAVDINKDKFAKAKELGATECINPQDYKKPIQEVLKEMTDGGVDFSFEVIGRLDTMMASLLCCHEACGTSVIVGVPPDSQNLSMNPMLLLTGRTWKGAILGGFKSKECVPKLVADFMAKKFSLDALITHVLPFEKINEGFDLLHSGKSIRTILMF

[8] = molecular target: Membrane-associated progesterone receptor component 1 (Homo sapiens) (UniProt O00264); assay: as above
Membrane-associated progesterone receptor component 1 (Homo sapiens), sequence (O00264 whole entry): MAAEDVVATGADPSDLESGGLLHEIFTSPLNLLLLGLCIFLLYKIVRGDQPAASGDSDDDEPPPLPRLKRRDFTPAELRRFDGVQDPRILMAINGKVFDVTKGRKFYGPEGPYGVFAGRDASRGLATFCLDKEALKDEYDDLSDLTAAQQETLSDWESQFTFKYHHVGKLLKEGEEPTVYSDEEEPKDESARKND

[9] = molecular target: Transitional endoplasmic reticulum ATPase (Homo sapiens) (UniProt P55072); assay: as above
[10] = molecular target: Calmodulin (Homo sapiens) (UniProt P0DP23); assay: as above
[11] = molecular target: Cytochrome b5 (Homo sapiens) (UniProt P00167); assay: as above
[12] = molecular target: Cytosolic 10-formyltetrahydrofolate dehydrogenase (Homo sapiens) (UniProt O75891); assay: as above
Cytosolic 10-formyltetrahydrofolate dehydrogenase (Homo sapiens), sequence (O75891 whole entry): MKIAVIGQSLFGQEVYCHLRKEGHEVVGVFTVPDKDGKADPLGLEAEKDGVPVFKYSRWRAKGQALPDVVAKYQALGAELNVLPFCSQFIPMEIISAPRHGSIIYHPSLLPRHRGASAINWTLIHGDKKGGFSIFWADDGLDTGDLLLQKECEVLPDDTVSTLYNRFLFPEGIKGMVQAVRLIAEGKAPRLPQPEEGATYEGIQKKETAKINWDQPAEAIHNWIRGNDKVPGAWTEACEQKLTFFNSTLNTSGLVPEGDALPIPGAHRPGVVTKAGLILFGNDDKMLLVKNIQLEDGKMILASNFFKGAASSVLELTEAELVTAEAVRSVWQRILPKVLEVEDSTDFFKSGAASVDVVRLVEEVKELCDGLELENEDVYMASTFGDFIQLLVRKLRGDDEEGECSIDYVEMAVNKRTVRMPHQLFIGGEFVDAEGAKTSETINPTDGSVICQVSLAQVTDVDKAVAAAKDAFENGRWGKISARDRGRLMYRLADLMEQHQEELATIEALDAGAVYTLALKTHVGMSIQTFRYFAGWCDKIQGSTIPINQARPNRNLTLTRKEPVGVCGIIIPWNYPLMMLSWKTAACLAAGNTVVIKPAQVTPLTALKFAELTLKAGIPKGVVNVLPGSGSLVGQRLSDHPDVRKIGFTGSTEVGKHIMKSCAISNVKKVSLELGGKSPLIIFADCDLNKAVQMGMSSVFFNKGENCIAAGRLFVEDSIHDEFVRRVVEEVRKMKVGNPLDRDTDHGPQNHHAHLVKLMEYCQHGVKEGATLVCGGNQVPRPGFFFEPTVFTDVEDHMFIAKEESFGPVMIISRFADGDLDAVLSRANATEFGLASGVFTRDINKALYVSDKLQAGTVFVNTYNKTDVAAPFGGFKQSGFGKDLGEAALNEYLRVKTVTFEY

[13] = molecular target: Delta-aminolevulinic acid dehydratase (Homo sapiens) (UniProt P13716); assay: as above
Delta-aminolevulinic acid dehydratase (Homo sapiens), sequence (P13716 whole entry, stated change not applied): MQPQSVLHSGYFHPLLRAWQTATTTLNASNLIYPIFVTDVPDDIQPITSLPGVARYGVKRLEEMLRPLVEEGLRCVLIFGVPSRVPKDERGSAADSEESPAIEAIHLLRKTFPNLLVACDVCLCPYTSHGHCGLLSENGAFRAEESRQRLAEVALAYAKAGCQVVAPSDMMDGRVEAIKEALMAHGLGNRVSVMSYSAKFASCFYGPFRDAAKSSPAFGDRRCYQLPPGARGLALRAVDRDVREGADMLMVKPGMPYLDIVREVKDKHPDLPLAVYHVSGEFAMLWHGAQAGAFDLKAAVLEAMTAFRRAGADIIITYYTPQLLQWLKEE

[14] = molecular target: Activated RNA polymerase II transcriptional coactivator p15 (Homo sapiens) (UniProt P53999); assay: as above
[15] = molecular target: 14-3-3 protein epsilon (Homo sapiens) (UniProt P62258); assay: as above
14-3-3 protein epsilon (Homo sapiens), sequence (P62258 whole entry): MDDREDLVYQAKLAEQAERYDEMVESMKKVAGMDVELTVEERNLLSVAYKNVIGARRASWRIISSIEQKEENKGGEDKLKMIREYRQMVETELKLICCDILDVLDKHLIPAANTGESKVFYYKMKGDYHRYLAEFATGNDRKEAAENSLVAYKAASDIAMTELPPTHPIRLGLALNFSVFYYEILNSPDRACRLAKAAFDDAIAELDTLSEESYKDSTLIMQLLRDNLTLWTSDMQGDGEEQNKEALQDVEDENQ

[16] = molecular target: Tropomyosin alpha-4 chain (Homo sapiens) (UniProt P67936); assay: as above
[17] = molecular target: Endoplasmin (Homo sapiens) (UniProt P14625); assay: as above
[18] = molecular target: 78 kDa glucose-regulated protein (Homo sapiens) (UniProt P11021); assay: as above
78 kDa glucose-regulated protein (Homo sapiens), sequence (P11021 19-654 limits assumed): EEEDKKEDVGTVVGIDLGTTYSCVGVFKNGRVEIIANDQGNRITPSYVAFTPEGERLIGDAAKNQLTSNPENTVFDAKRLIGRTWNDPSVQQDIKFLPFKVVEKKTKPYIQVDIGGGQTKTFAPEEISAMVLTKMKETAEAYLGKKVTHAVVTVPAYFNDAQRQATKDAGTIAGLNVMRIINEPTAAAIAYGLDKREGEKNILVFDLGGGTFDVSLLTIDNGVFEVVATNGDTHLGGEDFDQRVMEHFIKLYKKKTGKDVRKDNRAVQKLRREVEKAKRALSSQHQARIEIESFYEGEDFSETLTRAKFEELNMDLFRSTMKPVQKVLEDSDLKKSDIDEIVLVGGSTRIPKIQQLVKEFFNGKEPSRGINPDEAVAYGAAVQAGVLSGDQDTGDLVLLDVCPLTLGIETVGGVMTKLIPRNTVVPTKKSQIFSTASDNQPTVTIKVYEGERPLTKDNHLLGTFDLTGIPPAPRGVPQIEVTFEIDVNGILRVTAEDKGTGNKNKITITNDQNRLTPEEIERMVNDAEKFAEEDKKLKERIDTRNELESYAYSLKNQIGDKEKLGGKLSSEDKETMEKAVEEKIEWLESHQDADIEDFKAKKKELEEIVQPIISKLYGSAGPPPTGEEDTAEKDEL

[19] = molecular target: Alcohol dehydrogenase 4 (Homo sapiens) (UniProt P08319); assay: as above
[20] = molecular target: Calreticulin (Homo sapiens) (UniProt P27797); assay: as above
Calreticulin (Homo sapiens), sequence (P27797 18-417 limits assumed): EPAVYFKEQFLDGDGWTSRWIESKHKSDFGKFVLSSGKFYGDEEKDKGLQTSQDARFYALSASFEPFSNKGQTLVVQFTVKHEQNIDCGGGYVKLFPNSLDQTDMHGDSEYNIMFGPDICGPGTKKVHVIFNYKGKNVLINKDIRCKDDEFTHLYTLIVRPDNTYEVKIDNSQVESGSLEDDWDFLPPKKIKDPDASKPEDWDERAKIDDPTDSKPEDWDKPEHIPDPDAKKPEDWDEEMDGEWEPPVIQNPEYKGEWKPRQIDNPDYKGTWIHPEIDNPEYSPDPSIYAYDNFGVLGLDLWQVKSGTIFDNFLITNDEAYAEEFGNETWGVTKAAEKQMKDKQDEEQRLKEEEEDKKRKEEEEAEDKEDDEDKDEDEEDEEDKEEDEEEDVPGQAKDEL

[21] = molecular target: Cytochrome b-c1 complex subunit 6, mitochondrial (Homo sapiens) (UniProt P07919); assay: as above
[22] = molecular target: Alpha-actinin-4 (Homo sapiens) (UniProt O43707); assay: as above
[23] = molecular target: Protein disulfide-isomerase A4 (Homo sapiens) (UniProt P13667); assay: as above
Protein disulfide-isomerase A4 (Homo sapiens), sequence (P13667 21-645 limits assumed): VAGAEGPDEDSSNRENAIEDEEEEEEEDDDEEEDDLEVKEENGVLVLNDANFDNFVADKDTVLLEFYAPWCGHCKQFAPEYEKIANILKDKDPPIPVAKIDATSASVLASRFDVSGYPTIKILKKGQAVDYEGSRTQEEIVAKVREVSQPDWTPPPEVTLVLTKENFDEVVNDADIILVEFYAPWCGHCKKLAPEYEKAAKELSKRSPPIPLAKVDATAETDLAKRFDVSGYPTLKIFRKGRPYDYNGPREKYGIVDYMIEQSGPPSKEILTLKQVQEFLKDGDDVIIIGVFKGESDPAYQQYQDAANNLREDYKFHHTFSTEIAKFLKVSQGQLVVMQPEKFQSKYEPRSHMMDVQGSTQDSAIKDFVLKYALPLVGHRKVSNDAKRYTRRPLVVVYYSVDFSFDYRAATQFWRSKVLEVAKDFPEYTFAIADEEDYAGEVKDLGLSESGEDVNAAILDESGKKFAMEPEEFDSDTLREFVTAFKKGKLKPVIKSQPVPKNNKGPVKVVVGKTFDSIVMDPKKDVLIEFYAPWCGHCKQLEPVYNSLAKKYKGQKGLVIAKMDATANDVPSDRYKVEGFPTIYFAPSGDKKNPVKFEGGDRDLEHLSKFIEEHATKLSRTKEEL

[24] = molecular target: Peroxiredoxin-1 (Homo sapiens) (UniProt Q06830); assay: as above
[25] = molecular target: Parathymosin (Homo sapiens) (UniProt P20962); assay: PIF-agarose affinity extraction of normal human liver lysate 2, LC-MS/MS
[26] = molecular target: Alcohol dehydrogenase 1B (Homo sapiens) (UniProt P00325); assay: as above
[27] = molecular target: Protein disulfide-isomerase A3 (Homo sapiens) (UniProt P30101); assay: as above
[28] = molecular target: Alcohol dehydrogenase 1A (Homo sapiens) (UniProt P07327); assay: as above
[29] = molecular target: Membrane-associated progesterone receptor component 1 (Homo sapiens) (UniProt O00264); assay: as above
[30] = molecular target: Cytosolic 10-formyltetrahydrofolate dehydrogenase (Homo sapiens) (UniProt O75891); assay: as above
[31] = molecular target: Delta-aminolevulinic acid dehydratase (Homo sapiens) (UniProt P13716); assay: as above
[32] = molecular target: Activated RNA polymerase II transcriptional coactivator p15 (Homo sapiens) (UniProt P53999); assay: as above
[33] = molecular target: 14-3-3 protein epsilon (Homo sapiens) (UniProt P62258); assay: as above
[34] = molecular target: Endoplasmin (Homo sapiens) (UniProt P14625); assay: as above
[35] = molecular target: 78 kDa glucose-regulated protein (Homo sapiens) (UniProt P11021); assay: as above
[36] = molecular target: Calreticulin (Homo sapiens) (UniProt P27797); assay: as above
[37] = molecular target: Protein disulfide-isomerase A4 (Homo sapiens) (UniProt P13667); assay: as above

Parathymosin (Homo sapiens), sequence (P20962 2-102 limits assumed): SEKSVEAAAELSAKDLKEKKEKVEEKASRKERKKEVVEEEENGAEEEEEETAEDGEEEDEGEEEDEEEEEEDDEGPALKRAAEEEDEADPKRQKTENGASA

Question: For sPIF-1(15) (peptide), which % Coverage of the unique peptides observed [1] is on record?
Answer: 31%

Question: And the % Coverage of the unique peptides observed [2]?
Answer: 82%

Question: What about the % Coverage of the unique peptides observed (Vimentin (Homo sapiens)) of the same substance?
Answer: 52%

Question: What about the % Coverage of the unique peptides observed [3] of the same substance?
Answer: 66%

Question: What about the % Coverage of the unique peptides observed [4] of the same substance?
Answer: 42%

Question: What about the % Coverage of the unique peptides observed [5] of the same substance?
Answer: 52%

Question: What about the % Coverage of the unique peptides observed [6] of the same substance?
Answer: 75%

Question: What about the % Coverage of the unique peptides observed [7] of the same substance?
Answer: 54%

Question: What about the % Coverage of the unique peptides observed [8] of the same substance?
Answer: 46%

Question: And the % Coverage of the unique peptides observed [9]?
Answer: 52%

Question: And the % Coverage of the unique peptides observed [10]?
Answer: 46%

Question: And the % Coverage of the unique peptides observed [11]?
Answer: 43%

Question: What about the % Coverage of the unique peptides observed [12] of the same substance?
Answer: 52%

Question: What about the % Coverage of the unique peptides observed [13] of the same substance?
Answer: 25%

Question: And the % Coverage of the unique peptides observed [14]?
Answer: 34%

Question: What about the % Coverage of the unique peptides observed [15] of the same substance?
Answer: 64%

Question: What about the % Coverage of the unique peptides observed [16] of the same substance?
Answer: 40%

Question: What about the % Coverage of the unique peptides observed [17] of the same substance?
Answer: 43%

Question: What about the % Coverage of the unique peptides observed [18] of the same substance?
Answer: 48%

Question: And the % Coverage of the unique peptides observed [19]?
Answer: 61%

Question: And the % Coverage of the unique peptides observed [20]?
Answer: 70%

Question: What about the % Coverage of the unique peptides observed [21] of the same substance?
Answer: 58%

Question: And the % Coverage of the unique peptides observed [22]?
Answer: 19%

Question: What about the % Coverage of the unique peptides observed [23] of the same substance?
Answer: 51%

Question: And the % Coverage of the unique peptides observed [24]?
Answer: 29%

Question: What about the % Coverage of the unique peptides observed [25] of the same substance?
Answer: 48%

Question: What about the % Coverage of the unique peptides observed [26] of the same substance?
Answer: 54%

Question: And the % Coverage of the unique peptides observed [27]?
Answer: 44%

Question: And the % Coverage of the unique peptides observed [28]?
Answer: 53%

Question: And the % Coverage of the unique peptides observed [29]?
Answer: 46%

Question: What about the % Coverage of the unique peptides observed [30] of the same substance?
Answer: 34%

Question: And the % Coverage of the unique peptides observed [31]?
Answer: 49%

Question: What about the % Coverage of the unique peptides observed [32] of the same substance?
Answer: 44%

Question: And the % Coverage of the unique peptides observed [33]?
Answer: 71%

Question: And the % Coverage of the unique peptides observed [34]?
Answer: 45%

Question: What about the % Coverage of the unique peptides observed [35] of the same substance?
Answer: 51%

Question: What about the % Coverage of the unique peptides observed [36] of the same substance?
Answer: 69%

Question: And the % Coverage of the unique peptides observed [37]?
Answer: 52%
